From the supplement of paper PMC7877785
± gives the uncertainty stated by the source.

Assay: self-splicing fitness, log relative to wild type (ln ratio); higher = more splicing; Tetrahymena group I intron in knt gene, E. coli kanamycin selection, DiMSum; sequences stand for … in CUCUCU…GGAGGGAAAAGUUAUCAGGCAUGCACCUGGUAGCUAGUCUUUAAACCAAUAGAUUGCAUCGGUUUAAAAGGCAAGACCGUCAAAUUGCGGGAAAGGGGUCAACAGCCGUUCAGUACCAAGUCUCAGGGGAAACUUUGAGAUGGCCUUGCAAAGGGUAUGGUAAUAAGCUGACGGACAUGGUCCUAACCACGCAGCCAAGUCCUAAGUCAACAGAUCUUCUGUUGAUAUGGAUGCAGUUCACAGACUAAAUGUCGGUCGGGGAAGAUGUAUUCUUCUCAUAAGAUAUAGUCGGACCUCUCCUUAAUGGGAGCUAGCGGAUGAAGUGAUGCAACACUGGAGCCGCUGGGAACUAAUUUGUAUGCGAAAGUAUAUUGAUUAGUUUUGGAGUACUCGUGGUCG
In short: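 DiMSum derived fitness as the error-weighted combination of fold changes across replicates, kanamycin versus no kanamycin, normalised to wild type. E. coli BL21(DE3) held the library, which randomised all eight P1ex-region intron nucleotides within the knt kanamycin-resistance gene on pET-22b(+). Six replicate transformations grew overnight at 37°C or 30°C on LB agar with or without 25 μg/mL kanamycin, also containing 100 μg/mL carbenicillin, 50 μM IPTG and 0.2% rhamnose, and pooled colonies were amplicon-sequenced on an Illumina HiSeq 2500.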

| Sequence | self-splicing fitness (ln) (30 °C) | self-splicing fitness (ln) (37 °C) |
| --- | --- | --- |
| AGCUAGCAAUAUUACGGCUA | -0.83 ± 0.14 | -0.754 ± 0.15 |
| AGCUAGCAAUAUUACGGCUG | -0.696 ± 0.11 | -0.185 ± 0.14 |
| AGCUAGCAAUAUUACGGUAU | -1.44 ± 0.08 | -0.9 ± 0.1 |
| AGCUAGCAAUAUUACGUACA | -2.25 ± 0.23 | 0.0781 ± 0.18 |
| AGCUAGCAAUAUUACGUCAU | -2.65 ± 0.1 | -1.54 ± 0.1 |
| AGCUAGCAAUAUUACGUCGC | -3.1 ± 0.18 | -2.77 ± 0.36 |
| AGCUAGCAAUAUUACGUCGG | -2.97 ± 0.3 | -1.32 ± 0.26 |
| AGCUAGCAAUAUUACGUCUU | -0.517 ± 0.098 | 0.46 ± 0.14 |
| AGCUAGCAAUAUUACGUGCG | -1.02 ± 0.066 | -0.499 ± 0.091 |
| AGCUAGCAAUAUUACGUGGG | -4.49 ± 0.2 | -2.72 ± 0.15 |
| AGCUAGCAAUAUUACGUUAA | -2.49 ± 0.21 | -1.36 ± 0.14 |
| AGCUAGCAAUAUUACGUUAU | -4.39 ± 0.32 | -2.19 ± 0.17 |
| AGGAAGCAAUAUUACGAAAC | -2.83 ± 0.38 | – |
| AGGAAGCAAUAUUACGAAAU | -3.06 ± 0.2 | -1.53 ± 0.18 |
| AGGAAGCAAUAUUACGACGC | -0.0969 ± 0.13 | -0.574 ± 0.14 |
| AGGAAGCAAUAUUACGACUA | 0.0184 ± 0.094 | -0.351 ± 0.12 |
| AGGAAGCAAUAUUACGAGGC | -3.01 ± 0.3 | -2.31 ± 0.34 |
| AGGAAGCAAUAUUACGAUAU | -3.48 ± 0.19 | -2.5 ± 0.12 |
| AGGAAGCAAUAUUACGAUGC | -2.26 ± 0.17 | -1.04 ± 0.22 |
| AGGAAGCAAUAUUACGAUGG | -2.53 ± 0.16 | -1.88 ± 0.21 |
| AGGAAGCAAUAUUACGCAAA | -1.79 ± 0.14 | -1.23 ± 0.14 |
| AGGAAGCAAUAUUACGCAGU | -3.41 ± 0.15 | -0.746 ± 0.095 |
| AGGAAGCAAUAUUACGCCUA | -0.554 ± 0.12 | -0.497 ± 0.14 |
| AGGAAGCAAUAUUACGCGUG | -1.49 ± 0.072 | -0.951 ± 0.092 |
| AGGAAGCAAUAUUACGGACG | -0.899 ± 0.13 | 0.276 ± 0.14 |

| Sequence | self-splicing fitness (ln) (30 °C) | self-splicing fitness (ln) (37 °C) |
| --- | --- | --- |
| AGGAAGCAAUAUUACGGCGG | -1.34 ± 0.085 | -0.207 ± 0.11 |
| AGGAAGCAAUAUUACGGGUU | -3.14 ± 0.15 | -1.96 ± 0.15 |
| AGGAAGCAAUAUUACGUAUG | -2.39 ± 0.14 | -2.3 ± 0.16 |
| AGGAAGCAAUAUUACGUGCU | -2.18 ± 0.17 | -0.868 ± 0.16 |
| AGGAAGCAAUAUUACGUGGU | -3.36 ± 0.15 | -2.61 ± 0.25 |
| AGGCAGCAAUAUUACGAACC | -0.0701 ± 0.18 | -1.03 ± 0.2 |
| AGGCAGCAAUAUUACGAUCU | 0.0214 ± 0.086 | 0.2 ± 0.12 |
| AGGCAGCAAUAUUACGCAAA | -1.43 ± 0.15 | -1 ± 0.2 |
| AGGCAGCAAUAUUACGCAAU | -2.26 ± 0.14 | -1.76 ± 0.094 |
| AGGCAGCAAUAUUACGCCCA | -0.718 ± 0.094 | -0.205 ± 0.15 |
| AGGCAGCAAUAUUACGCCUA | -1.98 ± 0.23 | -0.0372 ± 0.14 |
| AGGCAGCAAUAUUACGCGCG | -0.446 ± 0.12 | -0.358 ± 0.14 |
| AGGCAGCAAUAUUACGCGUG | -2.48 ± 0.13 | -0.717 ± 0.11 |
| AGGCAGCAAUAUUACGCUAU | -1.45 ± 0.088 | -0.464 ± 0.092 |
| AGGCAGCAAUAUUACGCUCA | -0.172 ± 0.079 | 0.0289 ± 0.12 |
| AGGCAGCAAUAUUACGCUCC | -3.69 ± 0.4 | -2.01 ± 0.33 |
| AGGCAGCAAUAUUACGGCGC | -1.13 ± 0.11 | 0.292 ± 0.18 |
| AGGCAGCAAUAUUACGGCUU | -2.17 ± 0.12 | -1.83 ± 0.16 |
| AGGCAGCAAUAUUACGGGAA | -3.59 ± 0.23 | -2.42 ± 0.18 |
| AGGCAGCAAUAUUACGGGUC | -2.67 ± 0.17 | -3.01 ± 0.22 |
| AGGCAGCAAUAUUACGGUAA | -2.35 ± 0.088 | -1.75 ± 0.076 |
| AGGCAGCAAUAUUACGUCGA | -0.305 ± 0.043 | -0.0427 ± 0.055 |
| AGGCAGCAAUAUUACGUGAU | -2.2 ± 0.14 | -0.983 ± 0.13 |
| AGGCAGCAAUAUUACGUGGU | -3.88 ± 0.14 | -1.54 ± 0.1 |
| AGGCAGCAAUAUUACGUUAA | -2.6 ± 0.15 | -1.88 ± 0.13 |

| Sequence | self-splicing fitness (ln) (30 °C) | self-splicing fitness (ln) (37 °C) |
| --- | --- | --- |
| AGGGAGCAAUAUUACGAAAG | -1.91 ± 0.14 | -2.14 ± 0.24 |
| AGGGAGCAAUAUUACGACUA | -2.2 ± 0.5 | -1.98 ± 0.32 |
| AGGGAGCAAUAUUACGAGAC | -3.09 ± 0.4 | -2.77 ± 0.36 |
| AGGGAGCAAUAUUACGAUGC | – | -2.65 ± 0.41 |
| AGGGAGCAAUAUUACGCCGA | -2.38 ± 0.25 | – |
| AGGGAGCAAUAUUACGCUGG | -4.26 ± 0.37 | -1.67 ± 0.26 |
| AGGGAGCAAUAUUACGGCGC | -2.78 ± 0.5 | -1.23 ± 0.35 |
| AGGGAGCAAUAUUACGGCUU | -3.29 ± 0.25 | -1.11 ± 0.35 |
| AGGGAGCAAUAUUACGGGAA | -1.37 ± 0.38 | -2.58 ± 0.37 |
| AGGGAGCAAUAUUACGGGGA | -3.29 ± 0.34 | -2.64 ± 0.48 |
| AGGGAGCAAUAUUACGUAAG | -3.17 ± 0.2 | -2.28 ± 0.3 |
| AGGGAGCAAUAUUACGUAUG | -2.98 ± 0.3 | -2.37 ± 0.49 |
| AGGGAGCAAUAUUACGUCAC | -2.07 ± 0.24 | -2.69 ± 0.26 |
| AGGGAGCAAUAUUACGUGGG | -3.31 ± 0.2 | – |
| AGGGAGCAAUAUUACGUUUA | -2.68 ± 0.33 | -2.33 ± 0.31 |
| AGGGAGCAAUAUUACGUUUC | – | -2.44 ± 0.24 |
| AGGUAGCAAUAUUACGAAGG | -3.908 ± 0.034 | -2.86 ± 0.046 |
| AGGUAGCAAUAUUACGAAGU | -3.22 ± 0.026 | -1.56 ± 0.037 |
| AGGUAGCAAUAUUACGACAU | 0 ± 0.009 | – |
| AGGUAGCAAUAUUACGAGAU | -3.178 ± 0.023 | -1.91 ± 0.036 |
| AGGUAGCAAUAUUACGAGCA | -1.33 ± 0.019 | -0.51 ± 0.034 |
| AGGUAGCAAUAUUACGGAAC | -3.629 ± 0.035 | -2.2 ± 0.042 |
| AGGUAGCAAUAUUACGGAAU | -2.678 ± 0.019 | -1.29 ± 0.035 |
| AGGUAGCAAUAUUACGGACA | -0.694 ± 0.017 | -0.397 ± 0.034 |
| AGGUAGCAAUAUUACGGAUU | -1.553 ± 0.014 | -0.618 ± 0.033 |

| Sequence | self-splicing fitness (ln) (30 °C) | self-splicing fitness (ln) (37 °C) |
| --- | --- | --- |
| AGGUAGCAAUAUUACGGUAC | -3.522 ± 0.032 | -2.07 ± 0.04 |
| AGGUAGCAAUAUUACGUAGA | -3.995 ± 0.028 | -2.07 ± 0.036 |
| AGGUAGCAAUAUUACGUAGG | -3.667 ± 0.026 | -2.71 ± 0.039 |
| AGGUAGCAAUAUUACGUCUA | -0.666 ± 0.015 | -0.259 ± 0.033 |
| AGUAAGCAAUAUUACGAACC | -1.74 ± 0.21 | 1.04 ± 0.23 |
| AGUAAGCAAUAUUACGAAGA | -2.88 ± 0.28 | -2.82 ± 0.35 |
| AGUAAGCAAUAUUACGACCG | -1.03 ± 0.17 | -0.428 ± 0.2 |
| AGUAAGCAAUAUUACGACGG | -3.42 ± 0.27 | -1.94 ± 0.2 |
| AGUAAGCAAUAUUACGAGCU | -2.23 ± 0.14 | -1.98 ± 0.13 |
| AGUAAGCAAUAUUACGCAGC | -3.52 ± 0.32 | -1.8 ± 0.3 |
| AGUAAGCAAUAUUACGCCAA | -3.35 ± 0.29 | -2.6 ± 0.24 |
| AGUAAGCAAUAUUACGCCAU | -2.81 ± 0.2 | -1.93 ± 0.22 |
| AGUAAGCAAUAUUACGCCCA | -1.19 ± 0.37 | – |
| AGUAAGCAAUAUUACGCCUU | -1.74 ± 0.12 | -0.241 ± 0.14 |
| AGUAAGCAAUAUUACGCGGC | – | -3.37 ± 0.42 |
| AGUAAGCAAUAUUACGCUAU | -4.08 ± 0.32 | -1.41 ± 0.13 |
| AGUAAGCAAUAUUACGCUGA | -1.98 ± 0.33 | -2.29 ± 0.31 |
| AGUAAGCAAUAUUACGGACU | -1.57 ± 0.15 | 0.25 ± 0.17 |
| AGUAAGCAAUAUUACGGAGG | -2.9 ± 0.28 | -2.29 ± 0.26 |
| AGUAAGCAAUAUUACGGCGU | -0.683 ± 0.073 | 0.246 ± 0.095 |
| AGUAAGCAAUAUUACGGUAC | -2.95 ± 0.24 | -2.27 ± 0.31 |
| AGUAAGCAAUAUUACGGUGU | -2.92 ± 0.14 | -2.44 ± 0.16 |
